From IntAct's records for PubMed 23685356

B1: Homeobox-containing protein 1 (Homo sapiens), Q6NT76 (parent)
chain: MLSSFPVVLLETMSHYTDEPRFTIEQIDLLQRLRRTGMTKHEILHALETLDRLDQEHSDKFGRRSSYGGSSYGNSTNNVPASSSTATASTQTQHSGMSPSPSNSYDTSPQPCTTNQNGRENNERLSTSNGKMSPTRYHANSMGQRSYSFEASEEDLDVDDKVEELMRRDSSVIKEEIKAFLANRRISQAVVAQVTGISQSRISHWLLQQGSDLSEQKKRAFYRWYQLEKTNPGATLSMRPAPIPIEDPEWRQTPPPVSATSGTFRLRRGSRFTWRKECLAVMESYFNENQYPDEAKREEIANACNAVIQKPGKKLSDLERVTSLKVYNWFANRRKEIKRRANIEAAILESHGIDVQSPGGHSNSDDVDGNDYSEQDDSTSHSDHQDPISLAVEMAAVNHTILALARQGANEIKTEALDDD
partner: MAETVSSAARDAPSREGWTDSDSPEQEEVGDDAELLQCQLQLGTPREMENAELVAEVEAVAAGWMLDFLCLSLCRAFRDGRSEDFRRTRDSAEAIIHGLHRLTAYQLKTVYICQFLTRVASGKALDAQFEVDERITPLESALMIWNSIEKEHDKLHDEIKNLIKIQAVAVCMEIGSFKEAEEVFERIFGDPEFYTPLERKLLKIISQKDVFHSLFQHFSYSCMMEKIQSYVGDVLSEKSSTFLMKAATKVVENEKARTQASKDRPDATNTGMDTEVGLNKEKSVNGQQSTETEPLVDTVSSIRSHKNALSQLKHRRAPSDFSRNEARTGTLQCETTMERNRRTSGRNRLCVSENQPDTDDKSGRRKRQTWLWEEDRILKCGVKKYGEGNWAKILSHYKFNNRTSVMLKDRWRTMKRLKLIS

Variants of: B1
Details: with terf1_mouse Terf1, P70371

| effect of a mutation on the interaction | Variant |
| --- | --- |
| disrupting interaction | MLSSFPVVLLETMSHYTDEPRFTIEQIDLLQRLRRTGMTKHEILHALETLDRLDQEHSDKFGRRSSYGGSSYGNSTNNVPASSSTATASTQTQHSGMSPSPSNSYDTSPQPCTTNQNGRENNERLSTSNGKMSPTRYHANSMGQRSYSFEASEEDLDVDDKVEELMRRDSSVIKEEIKAFLANRRISQAVVAQVTGISQSRISHWLLQQGSDLSEQKKRAFYRWYQLEKTNPGATLSMRPAPIPIEDPEWRQTPPPVSATSGTFRLRRGSRFTWRKECLAVMESYFNENQYPDEAKREEIANACNAVIQKPGKKLSDLERVTSLKVYNWFANRRKEIKARANIEAAILESHGIDVQSPGGHSNSDDVDGNDYSEQDDSTSHSDHQDPISLAVEMAAVNHTILALARQGANEIKTEALDDD [R339A] |
